In patent publication US8628762B2, “T-helper cell type 17 lineage-specific adjuvants, compositions and methods” (Icahn School of Medicine at Mount Sinai, priority 2008, dated 2014):

Experiments:
[1] = test system: Naïve CD4 T cells; test: Intracellular staining (IL-17, IFN-γ, IL-10, Foxp3) of CD4 T cells cultured with DCCM, flow cytometry; type: cell-based, C57BL/6J mice; conditions: IL-6 added to DCCM-apoptotic B-cells or DCCM-apoptotic neutrophils
From the text: (§1) Naïve CD4 T cells were isolated first by sorting with MACS® CD4^+ beads (Miltenyi Biotech, Auburn, Calif.) according to manufacturer's instructions and then by fluorescence activated cell sorting (FACS) using a MoFlo™, Vantage, or Influx™ cell sorter for CD25^−CD44^lowCD62L^high cells using allophycocyanin (APC)-conjugated anti-CD25 monoclonal antibody (mAb) (clone PC61.5), FITC-conjugated CD62L mAb (clone MEL-14), and PE-Cy5-conjugated CD44 mAb (clone IM7) (all from eBioscience™, San Diego, Calif.). Cells were grown in complete IMDM (Gibco, Carlsbad, Calif.) supplemented with 10% FBS, 100 μg/mL penicillin, 100 μg/mL streptomycin, 2 mM L-glutamine, 10 mM HEPES, and 1 nM sodium pyruvate, and activated on 48-well tissue-culture plates which had been coated with 4 μg anti-CD3 (clone 2C11) for 3 h at 37° C., then washed 3 times with PBS. […]
Because development of Treg cells is reciprocally related to TH17 cells^10 expression of Foxp3, a transcription factor unique to Treg cells^19 was examined. After 3 days of culture with DCCM from the indicated groups, T cells were restimulated with PMA and ionomycin for 4 hours with Brefeldin A before intracellular cytokine staining for IL-17 and IFN-γ was performed, and expression of these cytokines was determined by FACS. […]

[2] = test system: Naïve CD4 T-cells; test: qPCR of lineage genes in naïve CD4 T-cells cultured with DCCM; type: cell-based, C57BL/6J mice; conditions: quantitative RT-PCR
From the text: as §1, with “PBS. Cultures were supplemented with 2 μg/mL anti-CD28 (clone 37-51, a kind gift from J. Allison, Sloan-Kettering Cancer Center) and anti-IL-4 ascites (clone 11B11, a kind gift from T. Moran, Mount Sinai School of Medicine, ATCC number HB188) at 1:500. mAbs 2C11 and 37-51 were purified from hybridoma supernatants by BioXCell Company (West Lebanon, N.H.). When cultured with conditioned medium (CM) from BMDC, T cells were grown in 1:1 CM:fresh complete IMDM.” for “PBS.”
T cells cultured for 48 hours under the indicated conditions were lysed and RNA isolated by TRIzol® extraction (Invitrogen) according to manufacturer's instructions. […] Quantitative real-time, reverse transcription polymerase chain reaction (qPCR) was conducted on an ABI Prism® 7900 instrument (Applied Biosystems, Foster City, Calif.) with primer pairs and probes as follows. […]
Quantitative PCR was performed using TaqMan® quantitative PCR Master Mix at a concentration of 1× (Applied Biosystems). […] “Fold inductions” were calculated using the ΔΔCt method relative to T cells activated under neutral conditions (No cytokines or CM). […]

B1: IL-6: cytokine interleukin-6 (Peprotech), 50 ng/mL (protein, UniProt P08505 25-211, looked up)
Interleukin-6: FPTSQVRRGDFTEDTTPNRPVYTTSQVGGLITHVLWEIVEMRKELCNGNSDCMNNDDALAENNLKLPEIQRNDGCYQTGYNQEICLLKISSGLLEYHSYLEYMKNNLKDNKKDKARVLQRDTETLIHIFNQEVKDLHKIVLPTPISNALLTDKLESQKEWLRTKTIQFILKSLEEFLKVTLRSTRQT
Foxp3 expression [1]: markedly impaired Foxp3 expression | IL-17 production [1]: restored IL-17 production | Foxp3 mRNA induction [2]: Foxp3 induction was impaired
